The values that follow come from patent US12692310B2, “ASIC1 channel antagonist antibody” (ShanghaiTech University, priority 2019, dated 2026).

Experiment [1] addresses T1, hASIC1a-eYFP on CHO-K1 cells (Homo sapiens, UniProt P78348).
T1 construct: overexpress the full-length hASIC1a (1-528 amino acids) protein fused with eYFP; expressed in transfected cells; host or cells: CHO-K1, transient
T1 sequence (P78348 1-528): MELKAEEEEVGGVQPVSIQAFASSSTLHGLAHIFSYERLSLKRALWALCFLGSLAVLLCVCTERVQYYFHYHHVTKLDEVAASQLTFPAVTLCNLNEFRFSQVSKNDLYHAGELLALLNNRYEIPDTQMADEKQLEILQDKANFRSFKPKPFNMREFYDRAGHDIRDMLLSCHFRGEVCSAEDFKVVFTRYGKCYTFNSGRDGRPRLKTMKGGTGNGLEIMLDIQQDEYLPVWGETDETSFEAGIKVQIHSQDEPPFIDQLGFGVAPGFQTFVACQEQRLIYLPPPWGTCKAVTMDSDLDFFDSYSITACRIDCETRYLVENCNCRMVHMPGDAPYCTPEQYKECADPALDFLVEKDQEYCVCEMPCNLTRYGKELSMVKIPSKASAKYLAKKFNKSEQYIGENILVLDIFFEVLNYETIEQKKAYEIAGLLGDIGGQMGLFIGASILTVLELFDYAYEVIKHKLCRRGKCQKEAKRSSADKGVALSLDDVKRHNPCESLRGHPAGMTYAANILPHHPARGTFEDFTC
The experiment in a line: Immunocytochemistry on CHO-K1/hASIC1a cells. Conditions: ICC, confocal; for localization to plasma membranes of cells expressing hASIC1a-eYFP: compared to ASC01 and ASC05. It counts as cell-based. How it is done:
Cell Membrane Colocalization Studies Using Immunocytochemistry (ICC). Cells (CHO-K1) were seeded onto the poly-D-lysine-coated glass bottom 24-well plates at a concentration of 2×10^5 cells per mL. After 12 h of cultivation, the CHO-K1 cells were transfected with ASIC plasmids by Lipofectin 3000 reagent. Twenty-four hours after transfection, the cells were fixed in 4% paraformaldehyde and incubated for 30 min in a blocking solution (5% goat serum in PBS). The resulting cells were incubated with […] ASC06-IgG1 at 4° C. overnight followed by three PBS washes for 5 min each and incubation with the Alexa555-conjugated goat anti-human secondary antibody (Life Technology). After three additional PBS washes for 5 min each, the nuclei of the cells were stained with DAPI (#10236276001; Roche). The ICC analysis was performed on a laser scanning confocal microscopy (ZEISS LSM710) with a 63×N.A. 1.4 objective at 25° C. Images were collected on a 1,024×1,024-pixel EM-CCD camera. Data acquisition and analyses were performed with the ZEN 2012 professional software.
To understand whether ASC01-ASC06 specifically bind to the ASIC1a protein expressed on cell surface, the binding of the antibodies to CHO-K1/hASIC1a cells was evaluated using immunocytochemistry. The CHO-K1/hASIC1a cells overexpress the full-length hASIC1a (1-528 amino acids) protein fused with eYFP. […] It is likely that ASC01-ASC05 recognize specific ASIC1a confirmations or subpopulations.
The ASC06 antibody was converted into a full length IgG1 form (ASC06-IgG1) for further study. […] The binding of ASC06-IgG1 to CHO-K1/hASIC1a cells was evaluated using immunocytochemistry, in comparison with the ASC06 (scFv format) antibody.

The next experiment deals with T2, ΔhASIC1a-nanodiscs (Homo sapiens, UniProt P78348).
T2 construct: A truncated ASIC1a (amino acids 13-464; ΔhASIC1a) was overexpressed and purified; made in house; host or cells: HEK293F (BacMam baculovirus)
In words: Binding affinities of scFv antibodies to ΔhASIC1a-nanodiscs, Octet system. Conditions: scFv format; for Response: Conc. 500 nM; for Response / Kd: Octet system; for affinities for ΔhASIC1a nanodiscs, comparison in words: among ASC01-ASC06. From the text: Nanodisc Assembly of hASIC1a Channel. To mimic the lipid bilayer environment of cellular membranes, the purified ΔhASIC1a protein was incorporated into a lipid nanodisc by mixing the ΔhASIC1a protein with the membrane scaffold protein (MSP). and 1,2-dimyristoyl-sn-glycero-3-phosphocholine (DMPC) at a molar ratio of 3:2:65. The associated detergents were removed by gentle agitation with the Bio-Beads SM2 [Bio-Beads:DDM=10:1 (wt/wt); Bio-Rad]overnight. The ΔhASIC1a-embedded nanodiscs were separated from the unassembled nanodisc using the Flag peptide-specific magnetic beads. D'Antona et al., Biochemistry 53:127-134 (2014). The desired ΔhASIC1a nanodisc assembly was further purified and collected using a Superose 6 column (GE Healthcare) in a buffer containing 20 mM Tris, pH 7.5, and 150 mM NaCl. The empty nanodiscs were packaged without the addition of ΔhASIC1a. The composition of the assembled ΔhASIC1a nanodiscs was analyzed by SDS-PAGE, EM, and dynamic light scattering (FIGS. 9A-C, 12A, 12B)
The binding ability of ASC01-ASC06 antibodies in scFv format to ΔhASIC1a-nanodiscs, in comparison to the empty nanodiscs, was evaluated using ELISA. […] Affinities of the antibodies were then measured.

The target of experiment [2] is truncated hASIC1a (amino acids 13-464) (human) (UniProt P78348). In words: Octet, scFv format, ΔhASIC1a nanodiscs.
The target is the same in experiment [3]. In words: Octet, scFv format at 500 nM, ΔhASIC1a nanodiscs. (In general: BLI is a label-free optical method that tracks binding on a fibre tip over time.)
The next experiment addresses T3, hASIC1a-eYFP (human, UniProt P78348 1-528).
T3 construct: whole, on cells; On CHO-K1 cells, stably (6H7) or transiently transfected; also called full-length hASIC1a (1-528 amino acids) fused with eYFP; CHO-K1/hASIC1a cells; not shown: C-terminal eYFP fusion
T3 sequence (looked up): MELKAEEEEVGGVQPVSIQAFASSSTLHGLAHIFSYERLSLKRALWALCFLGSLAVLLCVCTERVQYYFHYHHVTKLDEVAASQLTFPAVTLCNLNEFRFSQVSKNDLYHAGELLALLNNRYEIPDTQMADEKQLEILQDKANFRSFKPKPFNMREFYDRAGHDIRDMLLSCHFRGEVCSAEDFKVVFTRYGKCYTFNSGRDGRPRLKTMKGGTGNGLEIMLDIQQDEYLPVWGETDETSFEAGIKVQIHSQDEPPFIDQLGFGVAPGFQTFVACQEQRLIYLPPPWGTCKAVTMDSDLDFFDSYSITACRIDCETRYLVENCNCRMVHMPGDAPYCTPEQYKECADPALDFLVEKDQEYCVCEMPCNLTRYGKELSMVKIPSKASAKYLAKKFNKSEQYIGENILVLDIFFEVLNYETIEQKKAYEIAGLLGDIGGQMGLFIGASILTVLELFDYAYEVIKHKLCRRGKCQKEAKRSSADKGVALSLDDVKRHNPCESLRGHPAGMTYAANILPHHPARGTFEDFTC
In words: immunocytochemistry, confocal microscopy, CHO-K1 cells expressing hASIC1a-eYFP.

T2 sequence (P02647 68-267 partner limits assumed, one chain of several): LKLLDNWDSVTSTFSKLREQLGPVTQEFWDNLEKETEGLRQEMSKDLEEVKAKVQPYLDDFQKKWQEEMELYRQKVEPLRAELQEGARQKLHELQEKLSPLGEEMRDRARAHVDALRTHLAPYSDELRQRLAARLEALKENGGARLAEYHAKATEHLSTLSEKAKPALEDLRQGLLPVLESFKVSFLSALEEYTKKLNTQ

B1: ASC03: anti-ASIC1a scFv antibody, VH SEQ ID NO: 22 and VL SEQ ID NO: 27 (antibody, V domains shown)
VH: QVQLVESGAEVKKPGSSVKVSCKASGGNFRKYSISWVRQAPGQGLEWMGWISAYNGNTNYAQKLQGRVTMTTDTSTSTAYMELRSLRSDDTAVYYCARDFDPYYDAFDIWGQGTTVTVSS
VL: QSALTQPASVSGSPGQSITISCTGTSSDVGAYNYVSWYQQHPGKAPKLMIYDVSNRLSGVSNRFSGSKSGNRASLTISGLQAEDEADYYCSSYRSGNSLAFGGGTKLTVLG
modifications: scFv linker; Amino acid sequence of ASC03 VH; Amino acid sequence of ASC03 VL
For the molecule B1, the “localization to plasma membranes of cells expressing hASIC1a-eYFP” value (shortened to “localization to plasma membranes”) in experiment [1] was “localized more to the plasma membranes”. Further, in the experiment with ΔhASIC1a-nanodiscs, the Response was 0.2693 and the affinity, expressed as Kd, was 259 nM.

B2: ASC06 (scFv, V domains shown)
VH: QVQLQQSGGGLVQPGGSLRLSCAASGFTFSSYAMSWVRQAPGKGLEWVSAISGSGGSTYYADSVKGRFTISRDNSKNTLYLQMNSLRAEDTAVYYCAKDSFYGYSKGDWGQGTLVTVSS
VL: QSALTQPASVSGSPGQSITISCTGTSSDVGAYNYVSWYQQQPGKAPKLMIYGVSNRPSGVSNRFSGSKSGNAASLTISGLQAEDEADYYCSSYTSSSTYVFGTGTKLTVLG
Regarding B2, the Kd (as a rule, the equilibrium constant for the complex coming apart) in experiment [2] turned out to be 21.7 nM. In experiment [3], this molecule displayed a Response of 0.571.

B3: ASC06: anti-ASIC1a scFv antibody, VH SEQ ID NO: 52 and VL SEQ ID NO: 57 (antibody, V domains shown)
VH: QVQLQQSGGGLVQPGGSLRLSCAASGFTFSSYAMSWVRQAPGKGLEWVSAISGSGGSTYYADSVKGRFTISRDNSKNTLYLQMNSLRAEDTAVYYCAKDSFYGYSKGDWGQGTLVTVSS
VL: QSALTQPASVSGSPGQSITISCTGTSSDVGAYNYVSWYQQQPGKAPKLMIYGVSNRPSGVSNRFSGSKSGNAASLTISGLQAEDEADYYCSSYTSSSTYVFGTGTKLTVLG
modifications: scFv linker; Amino acid sequence of ASC06 VH; Amino acid sequence of ASC06 VL
For the molecule B3, in experiment [1], the “membrane co-localization with hASIC1a” value is reported as “more co-localization with hASIC1a-eYFP” and the “localization to plasma membranes” value is “localized more to the plasma membranes”. In the experiment with ΔhASIC1a-nanodiscs, the Response is reported as 0.5712; the Kd worked out at 21.7 nM; the “affinities for ΔhASIC1a nanodiscs, comparison in words” value is “strongest affinities”.

B4: ASC01 (scFv, V domains shown)
VH: QVQLVETGPRLVKPSQTLSLTCTVSGGSINSGGYYWGWIRQHSGKGLEWIGYIYPRGSSYYNPSLRSRVTISADTSRNNFSLKLTSVTAADTAVYYCARVGYTGAFDIWGQGTLVTVSS
VL: QAVLTQPSSVSAAPGQKVTISCSGGNSNIGNNYVSWYQQLPGTAPKLLIYDNNKRPSGIPDRFSGSKSGTAATLGITGLQTGDEADYYCGTWDSSLSAGVFGEGTQLTVLG
notes: also called ASC01 scFv; ASC01 (scFv format)
For the molecule B4, the Kd in experiment [2] stood at 45.1 nM. In addition, the binding result with hASIC1a-eYFP is reported as “binds”. The molecule further came in with a Response in experiment [3] of 0.431.

B5: ASC01: anti-ASIC1a scFv antibody, VH SEQ ID NO: 2 and VL SEQ ID NO: 7 (antibody, V domains shown)
VH: QVQLVETGPRLVKPSQTLSLTCTVSGGSINSGGYYWGWIRQHSGKGLEWIGYIYPRGSSYYNPSLRSRVTISADTSRNNFSLKLTSVTAADTAVYYCARVGYTGAFDIWGQGTLVTVSS
VL: QAVLTQPSSVSAAPGQKVTISCSGGNSNIGNNYVSWYQQLPGTAPKLLIYDNNKRPSGIPDRFSGSKSGTAATLGITGLQTGDEADYYCGTWDSSLSAGVFGEGTQLTVLG
modifications: scFv linker; Amino acid sequence of ASC01 VH; Amino acid sequence of ASC01 VL
With B5, in the experiment with ΔhASIC1a-nanodiscs, the Response came to 0.431 and the dissociation constant Kd came to 45.1 nM.

B6: ASC05: anti-ASIC1a scFv antibody, VH SEQ ID NO: 42 and VL SEQ ID NO: 47 (antibody, V domains shown)
VH: QVQLVESGAEVKKPGASVRVSCKASGYSFTNYYMHWVRQAPGQGLEWMGIISPSGRSTSFAQKFQGRVTMTRDTSTSTVYMHLSSLRSDDTAVYYCARGAWSTDAFDIWGQGTTVTVSS
VL: QSALTQPASVSGSPGQSITISCTGTSSDVGSYNLVSWYQQHPGKAPKLMIYEGSKRPSGVSNRFSGSKSGNTASLTISGLQAEDEAEYHCSSFTGKGYVFGTGTKLTVLGGLG
modifications: scFv linker; Amino acid sequence of ASC05 VH; Amino acid sequence of ASC05 VL
In the experiment with ΔhASIC1a-nanodiscs, B6 returned a Response of 0.5016 and a Kd of 137 nM.

B7: ASC02: anti-ASIC1a scFv antibody, VH SEQ ID NO: 12 and VL SEQ ID NO: 17 (antibody, V domains shown)
VH: QVQLVQSGAEVKKPGASMKVSCTTSGYTVTGYYIHWLRQAPGQGFEWMGWINPNLGVTNYAQKFQGRVSMTRDPSIKTAYLELSGLRSDDTAMYYCARASTGGIFYDYWGQGTLVTVSS
VL: NFMLTQPHSMSESPGKTVTISCTRSSGNIASNYVQWYQQRPGSSPTTVIYDDNQRPSGVPDRFSGSIDSISNSASLTISGLKTEDEADYYCQSYDSSSVIFGGGTKLTVLG
modifications: scFv linker; Amino acid sequence of ASC02 VH; Amino acid sequence of ASC02 VL
Take B7: in experiment [1], the “localization to plasma membranes” value was “localized more to the plasma membranes”. Also, in the experiment with ΔhASIC1a-nanodiscs, the Response amounted to 0.2888 and binding was put at a Kd of 262 nM.

B8: ASC04: anti-ASIC1a scFv antibody, VH SEQ ID NO: 32 and VL SEQ ID NO: 37 (antibody, V domains shown)
VH: QVQLVQSGAEVKKPGSSVKVSCKASGGTFSTYAINWVRQAPGQGLEWMGWMNPNSGNTGYAQKFQGRVTMTRNTSISTAYMELSSLRSEDTAVYYCARYSYGMDVWGQGTTVTVSS
VL: QAVLTQPSSLSASPGASVSLTCTLRSGINVGAYRIYWYQQKPGSPPQFLLRYKSDSDKQQGSGVPSRFSGSRDASANAGILLISGLRSEDEADYYCAIWHSSAWVFGGGTKLTVLG
modifications: scFv linker; Amino acid sequence of ASC04 VH; Amino acid sequence of ASC04 VL
As to B8, the “localization to plasma membranes” value in experiment [1] was “localized more to the plasma membranes”. In the experiment with ΔhASIC1a-nanodiscs, the Response worked out at 0.995; the Kd was 20.8 nM; the “affinities for ΔhASIC1a nanodiscs, comparison in words” value is reported as “strongest affinities”.
